Literature values in publication PMC2853873.
Like-named read-outs stand apart in the source and are kept apart here.

Legend:
ADAMTS-2 (Homo sapiens) [1] = target: ADAMTS-2 (Homo sapiens) (UniProt O95450)
ADAMTS-2 (Homo sapiens) [2] = target: ADAMTS-2 (Homo sapiens) (UniProt O95450); remark: listed apart in the source

Sequence of UniProt O95450 (O95450 254-1211): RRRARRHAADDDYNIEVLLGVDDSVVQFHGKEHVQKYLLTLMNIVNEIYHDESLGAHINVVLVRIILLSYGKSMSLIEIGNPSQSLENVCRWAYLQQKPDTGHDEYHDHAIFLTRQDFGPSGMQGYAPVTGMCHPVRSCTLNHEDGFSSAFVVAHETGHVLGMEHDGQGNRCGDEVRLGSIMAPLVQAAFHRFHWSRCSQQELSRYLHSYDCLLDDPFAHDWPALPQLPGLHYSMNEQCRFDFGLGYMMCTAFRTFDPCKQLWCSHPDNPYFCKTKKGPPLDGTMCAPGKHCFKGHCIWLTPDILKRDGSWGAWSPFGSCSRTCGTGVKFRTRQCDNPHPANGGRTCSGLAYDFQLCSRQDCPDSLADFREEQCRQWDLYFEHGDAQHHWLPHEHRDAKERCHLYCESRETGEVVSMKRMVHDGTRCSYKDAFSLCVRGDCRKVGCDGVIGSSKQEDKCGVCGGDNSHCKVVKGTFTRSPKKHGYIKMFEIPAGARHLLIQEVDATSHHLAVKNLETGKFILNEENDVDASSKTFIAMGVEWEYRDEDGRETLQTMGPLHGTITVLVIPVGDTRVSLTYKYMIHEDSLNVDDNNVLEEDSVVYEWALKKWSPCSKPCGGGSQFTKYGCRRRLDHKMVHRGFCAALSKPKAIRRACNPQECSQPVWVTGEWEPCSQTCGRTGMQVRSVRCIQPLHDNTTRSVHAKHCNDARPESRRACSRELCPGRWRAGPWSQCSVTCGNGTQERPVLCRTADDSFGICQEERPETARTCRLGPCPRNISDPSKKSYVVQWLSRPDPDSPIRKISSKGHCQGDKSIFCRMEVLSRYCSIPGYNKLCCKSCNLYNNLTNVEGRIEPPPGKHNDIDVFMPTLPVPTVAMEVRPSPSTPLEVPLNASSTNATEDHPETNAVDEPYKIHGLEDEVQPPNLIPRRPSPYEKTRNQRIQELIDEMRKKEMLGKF

Ki (ADAMTS-2 (Homo sapiens) [1]): 160 nM
Ki (ADAMTS-2 (Homo sapiens) [2]): 600 nM
Substance: N-TIMP-3 N-terminal domain (from UniProt P35625)
